One series has as its target MBD2 MBD+IDR (chicken) (chicken, UniProt Q5EFL0 1-117). Put plainly: NMR.
For another series, the target named is MBD2 MBD (chicken) (chicken, UniProt Q5EFL0 1-71). Put plainly: NMR.

B1: INV mCpG DNA (dsDNA)
DNA 1: GGACCGACTC
DNA 2: GAGTCGGTCC
modifications: 5mC at position 5 of strand 1; complement methylation implied
With B1, the binding result with MBD2 MBD+IDR (chicken) and with MBD2 MBD (chicken) was “binds” throughout.
